Experimental data from PMC4709127, “Wuho Is a New Member in Maintaining Genome Stability through its Interaction with Flap Endonuclease 1”.

Legend:
FEN1 = FEN1 (Homo sapiens, UniProt P39748 1-380); test: EMSA; no Mg2+ in binding buffer; FEN1 25-1000 nM; 50 nM DNA, 50 mM Tris pH 8, 50 mM NaCl, 37 C, 10 min, 20 ul; TBE-PAGE; settings: protein: recombinant, tags: C-terminal His6, label: 5' fluorophore (FAM on oligo 1, or Cy5 on oligo 4)
hWH (Wuho, WDR4) = molecular target: T1, hWH (Wuho, WDR4) (Homo sapiens, UniProt P57081 1-412); test: EMSA; hWH 25-1000 nM, no significant affinity; 50 nM DNA, 50 mM Tris pH 8, 50 mM NaCl, 37 C, 10 min, 20 ul; TBE-PAGE; settings: protein: recombinant, tags: C-terminal His6 (pET23b), label: 5' fluorophore (FAM on oligo 1, or Cy5 on oligo 4)
T1 sequence: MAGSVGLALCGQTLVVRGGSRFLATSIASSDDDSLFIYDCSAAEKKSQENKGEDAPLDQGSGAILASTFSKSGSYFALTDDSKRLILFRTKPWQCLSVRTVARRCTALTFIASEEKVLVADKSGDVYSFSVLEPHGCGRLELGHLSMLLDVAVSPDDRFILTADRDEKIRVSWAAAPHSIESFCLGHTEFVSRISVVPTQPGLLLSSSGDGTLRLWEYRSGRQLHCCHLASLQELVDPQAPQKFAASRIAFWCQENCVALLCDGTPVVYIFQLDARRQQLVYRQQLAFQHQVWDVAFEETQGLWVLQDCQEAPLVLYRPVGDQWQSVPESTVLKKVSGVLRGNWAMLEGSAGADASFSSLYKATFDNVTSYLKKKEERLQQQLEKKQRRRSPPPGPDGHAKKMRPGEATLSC

[1] = double flap: 1:15-34 or 1:21-34 pairs with 2:1-14 (14 bp), 5' flap 20 nt, 3:1-16 pairs with 2:15-30 (16 bp), 3' flap 1 nt
[2] = fork: 14 bp duplex (1:21-34 with 2:1-14), 5' arm 20 nt, 3' arm 16 nt

FEN1, sequence (P39748 whole entry): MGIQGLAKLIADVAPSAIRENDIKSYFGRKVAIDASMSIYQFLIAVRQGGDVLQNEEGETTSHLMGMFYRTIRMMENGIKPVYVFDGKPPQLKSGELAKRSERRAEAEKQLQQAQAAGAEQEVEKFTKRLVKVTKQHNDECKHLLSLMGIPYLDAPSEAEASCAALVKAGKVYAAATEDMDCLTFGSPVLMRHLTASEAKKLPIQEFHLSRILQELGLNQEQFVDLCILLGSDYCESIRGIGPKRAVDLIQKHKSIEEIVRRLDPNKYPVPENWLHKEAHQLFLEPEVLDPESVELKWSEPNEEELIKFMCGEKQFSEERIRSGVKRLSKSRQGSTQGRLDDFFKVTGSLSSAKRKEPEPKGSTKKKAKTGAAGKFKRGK

B1: Double-flap substrate (dsDNA)
DNA 1: GATGTCAAGCAGTCCTAACTTTGAGGCAGAGTCC
DNA 2: GGACTCTGCCTCAAGACGGTAGTCAACGTG
DNA 3: CACGTTGACTACCGTCC
B1: binds (FEN1; [1]); no binding (hWH (Wuho, WDR4); [1]).

B2: Y-shape substrate (dsDNA)
DNA 1: B1 DNA 1
DNA 2: B1 DNA 2
B2: binds (FEN1; [2]); no binding (hWH (Wuho, WDR4); [2]).
